Laboratory results reported in patent US20170042969A1.
Changes are numbered by the printed parent chain. In names and notes the source's numbering stands. Blank lines part the entries; values can stand above or below the binder they belong to.

Molecular target: ornithine decarboxylase (ODC) present in Xenopus laevis oocytes
Assay: cell-based or functional assay

IC50 for down-regulation of hSGLT1 at low intracellular AMG, against hRS1-Reg wildtype: 6300 times
affinity for down-regulation of hSGLT1 in the presence of intracellular glucose, against hRS1-Reg wildtype: 1.5e+07 times
change of IC50 for down-regulation of hSGLT1 at high intracellular AMG (~250 µM) against low AMG: 300 fold
increase of affinity for down-regulation of hSGLT1 against hRS1-Reg wildtype or hRS1-Reg(S20A): 4000 to 6000 fold
B1: hRS1-Reg(S20E) (protein, not shown: small tags and cut ends)
chain: SSGQEPDVGNPMSLARSVSASVCPIKPSDSDRIEPKAVKALKASAEFQLNSEKKEHLSLQDLSDHASSADHAPTDQSPAMPMQ

decrease of affinity for down-regulation of hSGLT1 at high intracellular glucose: 7 to 8 fold
B2: hRS1-Reg(S20A) (protein, not shown: small tags and cut ends)
chain: B1 chain with E5A
